Experiments:
[1] = target: β-tubulin (human (endogenous in VTC-001 and VTC-037 GSCs)) (UniProt P07437); assay: cellular thermal shift assay (CETSA); fresh VTC-037 GSC lysates in non-denaturing buffer treated 1 h with 3-fold dilutions (222.2, 74.0, 24.7, 8.2 and 2.7 nM) of peptide, heat challenge at 57 °C for 20 min, centrifugation, immunoblot of the stable protein normalised to DMSO control; EC50 of target engagement
[2] = target: α-tubulin (human (endogenous in VTC-037 GSCs)) (UniProt P68363); assay: as above
Sequence of α-tubulin (human (endogenous in VTC-037 GSCs)) (P68363 whole entry): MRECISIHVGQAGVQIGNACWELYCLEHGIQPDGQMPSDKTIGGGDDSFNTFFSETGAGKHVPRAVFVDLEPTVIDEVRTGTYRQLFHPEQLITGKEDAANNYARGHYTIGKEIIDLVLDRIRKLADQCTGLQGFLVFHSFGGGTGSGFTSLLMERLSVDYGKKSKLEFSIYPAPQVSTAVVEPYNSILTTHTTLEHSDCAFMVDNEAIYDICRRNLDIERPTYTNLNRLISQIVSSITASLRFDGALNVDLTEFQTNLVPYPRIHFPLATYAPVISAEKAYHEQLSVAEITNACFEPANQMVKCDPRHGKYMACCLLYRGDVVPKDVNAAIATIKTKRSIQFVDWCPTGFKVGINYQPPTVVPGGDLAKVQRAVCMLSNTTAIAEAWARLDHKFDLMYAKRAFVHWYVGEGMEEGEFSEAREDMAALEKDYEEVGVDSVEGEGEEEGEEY

Sequence of β-tubulin (human (endogenous in VTC-001 and VTC-037 GSCs)) (P07437 whole entry): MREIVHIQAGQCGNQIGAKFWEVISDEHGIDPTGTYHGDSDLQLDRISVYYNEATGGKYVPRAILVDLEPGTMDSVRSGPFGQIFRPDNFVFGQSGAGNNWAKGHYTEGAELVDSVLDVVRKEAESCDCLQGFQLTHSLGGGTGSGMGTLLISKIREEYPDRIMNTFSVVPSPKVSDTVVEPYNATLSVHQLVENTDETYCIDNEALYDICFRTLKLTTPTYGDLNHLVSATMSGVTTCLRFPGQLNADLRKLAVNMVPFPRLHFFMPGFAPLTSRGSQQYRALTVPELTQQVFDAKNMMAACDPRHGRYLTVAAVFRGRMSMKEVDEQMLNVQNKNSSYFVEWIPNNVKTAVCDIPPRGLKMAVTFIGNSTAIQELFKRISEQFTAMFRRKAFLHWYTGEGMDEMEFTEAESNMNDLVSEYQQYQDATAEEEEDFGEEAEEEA

JM2 (juxtamembrane 2) peptide gave an EC50 [1] of 7.9 nM and an EC50 [2] of 8.4 nM.

From paper PMC12084297, “Cytoplasmic connexin43-microtubule interactions promote glioblastoma stem-like cell maintenance and tumorigenicity” (Cell Death & Disease, 2025)
